Experimental data as given in patent US20200377595A1 (Chugai, published 2020).
“And” between values parts separate entries of the source, which are not always exact repeats. Equal values may be shown once.

T1: biotin-labeled cynomolgus monkey CD137 fused to human IgG1 Fc fragment (cynomolgus monkey; human, UniProt Q07011 24-186, limits assumed, biotin-labeled)
T1 construct: also called cyno CD137-Fc; not shown: human IgG1 Fc fragment
T1 chain: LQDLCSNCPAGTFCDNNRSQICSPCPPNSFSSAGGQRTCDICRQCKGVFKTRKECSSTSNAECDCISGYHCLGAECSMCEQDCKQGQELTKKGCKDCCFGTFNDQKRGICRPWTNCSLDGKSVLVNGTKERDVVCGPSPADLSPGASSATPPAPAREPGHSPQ


Legend:
[1] = target: T1, biotin-labeled cynomolgus monkey CD137 …; assay: ELISA, IgG
[2] = target: biotinylated CD3 epsilon epitope peptide; assay: SPR, method of Ref. Ex. 3, one-arm Ab

| binding result [1] | Kd [2] | Binder |
| --- | --- | --- |
| binds |  | dBBDu217 (antibody, IgG1, V domains shown, IgG1) VH: QVQLVESGGGLVQPGRSLRLSCAASGFTFSNAWMHWVRQAPGKGLEWVAQIKDRQQGYATYYAPSVKGRFTISRDDSKNSIYLQMNSLKTEDTAVYYCRFVHYHLAGYGYYGVDAWGQGTTVTVSS VL: DIVMTQSPLSLPVTPGEPASISCRSSQSLVHSNRNTYLHWYQQKPGQAPRLLIYKVSNRFSGVPDRFSGSGSGTDFTLKISRVEAEDVGVYYCGQGTQVPYTFGQGTKLEIK |
| binds |  | dBBDu174 (antibody, IgG1, V domains shown, IgG1) VH: QVQLVESGGGLVQPGRSLRLSCAASGFTFSSAWMHWVRQAPGKGLEWVAQIKDRASAYNAYYAESVKGRFTISRDDSKNSIYLQMNSLKTEDTAVYYCRYVHYPSYVSFLPYYGVDAWGQGTTVTVSS VL: DIVMTQSPLSLPVTPGEPASISCRSSQSLVHSNRNTYLHWYQQKPGQAPRLLIYKVSNRFSGVPDRFSGSGSGTDFTLKISRVEAEDVGVYYCGQGTQVPYTFGQGTKLEIK |
|  | 63.1 nM | CE115HA000 V11L/D72A/L78I/D101Q with GGS inserted between Kabat 99 and 100, one-arm antibody (antibody) chain 1: QVQLVESGGGLVQPGRSLRLSCAASGFTFSNAWMHWVRQAPGKGLEWVAQIKAKSNNYATYYAESVKGRFTISRADSKNSIYLQMNSLKTEDTAVYYCRYVHYGAGGSYYGVQAWGQGTTVTVSSASTKGPSVFPLAPSSKSTSGGTAALGCLVKDYFPEPVTVSWNSGALTSGVHTFPAVLQSSGLYSLSSVVTVPSSSLGTQTYICNVNHKPSNTKVDKKVEPKSCDKTHTCPPCPAPEAAGGPSVFLFPPKPKDTLMISRTPEVTCVVVDVSHEDPEVKFNWYVDGVEVHNAKTKPREEQYASTYRVVSVLTVLHQDWLNGKEYKCKVSNKALPAPIEKTISKAKGQPREPQVYTLPPSRCELTKNQVSLSCAVKGFYPSDIAVEWESNGQPENNYKTTPPVLDSDGSFFLVSKLTVDKSRWQQGNVFSCSVMHEALHNHYTQKSLSLSPDYKDDDDK chain 2: EPKSSDKTHTCPPCPAPELLGGPSVFLFPPKPKDTLMISRTPEVTCVVVDVSHEDPEVKFNWYVDGVEVHNAKTKPREEQYNSTYRVVSVLTVLHQDWLNGKEYKCKVSNKALPAPIEKTISKAKGQPREPQVCTLPPSRDELTKNQVSLWCLVKGFYPSDIAVEWESNGQPENNYKTTPPVLDSDGSFFLYSKLTVDKSRWQQGNVFSCSVMHEALHNRYTQKSLSLSP chain 3: DIVMTQSPLSLPVTPGEPASISCRSSQSLVHSNRNTYLHWYQQKPGQAPRLLIYKVSNRFSGVPDRFSGSGSGTDFTLKISRVEAEDVGVYYCGQGTQVPYTFGQGTKLEIKRTVAAPSVFIFPPSDEQLKSGTASVVCLLNNFYPREAKVQWKVDNALQSGNSQESVTEQDSKDSTYSLSSTLTLSKADYEKHKVYACEVTHQGLSSPVTKSFNRGEC |
|  | 43.5 nM and 34.3 nM | CE115HA000 V11L/D72A/L78I/D101Q with GGSGGGS inserted between Kabat 99 and 100, one-arm antibody (antibody) chain 1: QVQLVESGGGLVQPGRSLRLSCAASGFTFSNAWMHWVRQAPGKGLEWVAQIKAKSNNYATYYAESVKGRFTISRADSKNSIYLQMNSLKTEDTAVYYCRYVHYGAGGSGGGSYYGVQAWGQGTTVTVSSASTKGPSVFPLAPSSKSTSGGTAALGCLVKDYFPEPVTVSWNSGALTSGVHTFPAVLQSSGLYSLSSVVTVPSSSLGTQTYICNVNHKPSNTKVDKKVEPKSCDKTHTCPPCPAPEAAGGPSVFLFPPKPKDTLMISRTPEVTCVVVDVSHEDPEVKFNWYVDGVEVHNAKTKPREEQYASTYRVVSVLTVLHQDWLNGKEYKCKVSNKALPAPIEKTISKAKGQPREPQVYTLPPSRCELTKNQVSLSCAVKGFYPSDIAVEWESNGQPENNYKTTPPVLDSDGSFFLVSKLTVDKSRWQQGNVFSCSVMHEALHNHYTQKSLSLSPDYKDDDDK chain 2: EPKSSDKTHTCPPCPAPELLGGPSVFLFPPKPKDTLMISRTPEVTCVVVDVSHEDPEVKFNWYVDGVEVHNAKTKPREEQYNSTYRVVSVLTVLHQDWLNGKEYKCKVSNKALPAPIEKTISKAKGQPREPQVCTLPPSRDELTKNQVSLWCLVKGFYPSDIAVEWESNGQPENNYKTTPPVLDSDGSFFLYSKLTVDKSRWQQGNVFSCSVMHEALHNRYTQKSLSLSP chain 3: DIVMTQSPLSLPVTPGEPASISCRSSQSLVHSNRNTYLHWYQQKPGQAPRLLIYKVSNRFSGVPDRFSGSGSGTDFTLKISRVEAEDVGVYYCGQGTQVPYTFGQGTKLEIKRTVAAPSVFIFPPSDEQLKSGTASVVCLLNNFYPREAKVQWKVDNALQSGNSQESVTEQDSKDSTYSLSSTLTLSKADYEKHKVYACEVTHQGLSSPVTKSFNRGEC |
|  | 6.96 nM | CE115HA000 V11L/D72A/L78I/D101Q without insertion, one-arm antibody (antibody, human IgG1, kappa, L234A L235A, N297A, name in Kabat numbering, one-arm antibody; 'No insertion' read as the altered H chain without linker; also called No insertion) heavy: QVQLVESGGGLVQPGRSLRLSCAASGFTFSNAWMHWVRQAPGKGLEWVAQIKAKSNNYATYYAESVKGRFTISRADSKNSIYLQMNSLKTEDTAVYYCRYVHYGAYYGVQAWGQGTTVTVSSASTKGPSVFPLAPSSKSTSGGTAALGCLVKDYFPEPVTVSWNSGALTSGVHTFPAVLQSSGLYSLSSVVTVPSSSLGTQTYICNVNHKPSNTKVDKKVEPKSCDKTHTCPPCPAPEAAGGPSVFLFPPKPKDTLMISRTPEVTCVVVDVSHEDPEVKFNWYVDGVEVHNAKTKPREEQYASTYRVVSVLTVLHQDWLNGKEYKCKVSNKALPAPIEKTISKAKGQPREPQVYTLPPSRCELTKNQVSLSCAVKGFYPSDIAVEWESNGQPENNYKTTPPVLDSDGSFFLVSKLTVDKSRWQQGNVFSCSVMHEALHNHYTQKSLSLSPDYKDDDDK EPKSSDKTHTCPPCPAPELLGGPSVFLFPPKPKDTLMISRTPEVTCVVVDVSHEDPEVKFNWYVDGVEVHNAKTKPREEQYNSTYRVVSVLTVLHQDWLNGKEYKCKVSNKALPAPIEKTISKAKGQPREPQVCTLPPSRDELTKNQVSLWCLVKGFYPSDIAVEWESNGQPENNYKTTPPVLDSDGSFFLYSKLTVDKSRWQQGNVFSCSVMHEALHNRYTQKSLSLSP light: DIVMTQSPLSLPVTPGEPASISCRSSQSLVHSNRNTYLHWYQQKPGQAPRLLIYKVSNRFSGVPDRFSGSGSGTDFTLKISRVEAEDVGVYYCGQGTQVPYTFGQGTKLEIKRTVAAPSVFIFPPSDEQLKSGTASVVCLLNNFYPREAKVQWKVDNALQSGNSQESVTEQDSKDSTYSLSSTLTLSKADYEKHKVYACEVTHQGLSSPVTKSFNRGEC |
|  | 34.6 nM and 31.1 nM | CE115HA000 V11L/D72A/L78I/D101Q with GGSGGS inserted between Kabat 99 and 100, one-arm antibody (antibody) chain 1: QVQLVESGGGLVQPGRSLRLSCAASGFTFSNAWMHWVRQAPGKGLEWVAQIKAKSNNYATYYAESVKGRFTISRADSKNSIYLQMNSLKTEDTAVYYCRYVHYGAGGSGGSYYGVQAWGQGTTVTVSSASTKGPSVFPLAPSSKSTSGGTAALGCLVKDYFPEPVTVSWNSGALTSGVHTFPAVLQSSGLYSLSSVVTVPSSSLGTQTYICNVNHKPSNTKVDKKVEPKSCDKTHTCPPCPAPEAAGGPSVFLFPPKPKDTLMISRTPEVTCVVVDVSHEDPEVKFNWYVDGVEVHNAKTKPREEQYASTYRVVSVLTVLHQDWLNGKEYKCKVSNKALPAPIEKTISKAKGQPREPQVYTLPPSRCELTKNQVSLSCAVKGFYPSDIAVEWESNGQPENNYKTTPPVLDSDGSFFLVSKLTVDKSRWQQGNVFSCSVMHEALHNHYTQKSLSLSPDYKDDDDK chain 2: EPKSSDKTHTCPPCPAPELLGGPSVFLFPPKPKDTLMISRTPEVTCVVVDVSHEDPEVKFNWYVDGVEVHNAKTKPREEQYNSTYRVVSVLTVLHQDWLNGKEYKCKVSNKALPAPIEKTISKAKGQPREPQVCTLPPSRDELTKNQVSLWCLVKGFYPSDIAVEWESNGQPENNYKTTPPVLDSDGSFFLYSKLTVDKSRWQQGNVFSCSVMHEALHNRYTQKSLSLSP chain 3: DIVMTQSPLSLPVTPGEPASISCRSSQSLVHSNRNTYLHWYQQKPGQAPRLLIYKVSNRFSGVPDRFSGSGSGTDFTLKISRVEAEDVGVYYCGQGTQVPYTFGQGTKLEIKRTVAAPSVFIFPPSDEQLKSGTASVVCLLNNFYPREAKVQWKVDNALQSGNSQESVTEQDSKDSTYSLSSTLTLSKADYEKHKVYACEVTHQGLSSPVTKSFNRGEC |
|  | 43.9 nM and 35.4 nM | CE115HA000 V11L/D72A/L78I/D101Q with GGSGGSGGS inserted between Kabat 99 and 100, one-arm antibody (antibody) chain 1: QVQLVESGGGLVQPGRSLRLSCAASGFTFSNAWMHWVRQAPGKGLEWVAQIKAKSNNYATYYAESVKGRFTISRADSKNSIYLQMNSLKTEDTAVYYCRYVHYGAGGSGGSGGSYYGVQAWGQGTTVTVSSASTKGPSVFPLAPSSKSTSGGTAALGCLVKDYFPEPVTVSWNSGALTSGVHTFPAVLQSSGLYSLSSVVTVPSSSLGTQTYICNVNHKPSNTKVDKKVEPKSCDKTHTCPPCPAPEAAGGPSVFLFPPKPKDTLMISRTPEVTCVVVDVSHEDPEVKFNWYVDGVEVHNAKTKPREEQYASTYRVVSVLTVLHQDWLNGKEYKCKVSNKALPAPIEKTISKAKGQPREPQVYTLPPSRCELTKNQVSLSCAVKGFYPSDIAVEWESNGQPENNYKTTPPVLDSDGSFFLVSKLTVDKSRWQQGNVFSCSVMHEALHNHYTQKSLSLSPDYKDDDDK chain 2: EPKSSDKTHTCPPCPAPELLGGPSVFLFPPKPKDTLMISRTPEVTCVVVDVSHEDPEVKFNWYVDGVEVHNAKTKPREEQYNSTYRVVSVLTVLHQDWLNGKEYKCKVSNKALPAPIEKTISKAKGQPREPQVCTLPPSRDELTKNQVSLWCLVKGFYPSDIAVEWESNGQPENNYKTTPPVLDSDGSFFLYSKLTVDKSRWQQGNVFSCSVMHEALHNRYTQKSLSLSP chain 3: DIVMTQSPLSLPVTPGEPASISCRSSQSLVHSNRNTYLHWYQQKPGQAPRLLIYKVSNRFSGVPDRFSGSGSGTDFTLKISRVEAEDVGVYYCGQGTQVPYTFGQGTKLEIKRTVAAPSVFIFPPSDEQLKSGTASVVCLLNNFYPREAKVQWKVDNALQSGNSQESVTEQDSKDSTYSLSSTLTLSKADYEKHKVYACEVTHQGLSSPVTKSFNRGEC |
|  | 41.3 nM and 37.5 nM | CE115HA000 V11L/D72A/L78I/D101Q with GGGSGGGS inserted between Kabat 99 and 100, one-arm antibody (antibody) chain 1: QVQLVESGGGLVQPGRSLRLSCAASGFTFSNAWMHWVRQAPGKGLEWVAQIKAKSNNYATYYAESVKGRFTISRADSKNSIYLQMNSLKTEDTAVYYCRYVHYGAGGGSGGGSYYGVQAWGQGTTVTVSSASTKGPSVFPLAPSSKSTSGGTAALGCLVKDYFPEPVTVSWNSGALTSGVHTFPAVLQSSGLYSLSSVVTVPSSSLGTQTYICNVNHKPSNTKVDKKVEPKSCDKTHTCPPCPAPEAAGGPSVFLFPPKPKDTLMISRTPEVTCVVVDVSHEDPEVKFNWYVDGVEVHNAKTKPREEQYASTYRVVSVLTVLHQDWLNGKEYKCKVSNKALPAPIEKTISKAKGQPREPQVYTLPPSRCELTKNQVSLSCAVKGFYPSDIAVEWESNGQPENNYKTTPPVLDSDGSFFLVSKLTVDKSRWQQGNVFSCSVMHEALHNHYTQKSLSLSPDYKDDDDK chain 2: EPKSSDKTHTCPPCPAPELLGGPSVFLFPPKPKDTLMISRTPEVTCVVVDVSHEDPEVKFNWYVDGVEVHNAKTKPREEQYNSTYRVVSVLTVLHQDWLNGKEYKCKVSNKALPAPIEKTISKAKGQPREPQVCTLPPSRDELTKNQVSLWCLVKGFYPSDIAVEWESNGQPENNYKTTPPVLDSDGSFFLYSKLTVDKSRWQQGNVFSCSVMHEALHNRYTQKSLSLSP chain 3: DIVMTQSPLSLPVTPGEPASISCRSSQSLVHSNRNTYLHWYQQKPGQAPRLLIYKVSNRFSGVPDRFSGSGSGTDFTLKISRVEAEDVGVYYCGQGTQVPYTFGQGTKLEIKRTVAAPSVFIFPPSDEQLKSGTASVVCLLNNFYPREAKVQWKVDNALQSGNSQESVTEQDSKDSTYSLSSTLTLSKADYEKHKVYACEVTHQGLSSPVTKSFNRGEC |
